Source: patent CN106957364A (UNIV SHANGHAI JIAOTONG, dated 2017)

Target: T1, hFcRn&b2M蛋白 (human, UniProt P55899 24-297; P61769 21-119, limits assumed)
T1 construct: also called hFcRn&β2M; hFcRn蛋白
Assay: affinity measurement at pH 6.0, hFcRn&b2M as ligand, scFv as sample (method not named)

T1 sequence (P55899 24-297 limits assumed, chain 1 of 2): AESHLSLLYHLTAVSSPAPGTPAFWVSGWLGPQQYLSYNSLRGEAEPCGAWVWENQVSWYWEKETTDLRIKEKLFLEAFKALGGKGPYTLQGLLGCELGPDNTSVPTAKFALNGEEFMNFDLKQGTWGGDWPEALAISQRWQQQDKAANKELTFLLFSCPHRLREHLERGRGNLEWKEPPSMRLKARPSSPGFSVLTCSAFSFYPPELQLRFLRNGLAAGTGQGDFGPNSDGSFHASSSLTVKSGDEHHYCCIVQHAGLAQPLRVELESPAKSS
T1 sequence (P61769 21-119 limits assumed, chain 2 of 2): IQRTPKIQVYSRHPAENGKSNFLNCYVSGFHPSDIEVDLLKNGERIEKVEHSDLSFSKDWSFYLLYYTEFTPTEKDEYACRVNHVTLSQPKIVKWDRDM

B1: 单链抗体FnAb12 (scFv)
scFv: DIQLTQSPSSLSASVGDRVTLTCQATQDIDNNLNWYQQKPGKAPKLLIYDASNLETGVPSRFSGSGSGTDFTFTISDLQPEDVATYYCQQYYNLPLTFGGGTKVDIKRSRGGGGSGGGGSGGGGSLEMAEVQLVQSGAEVKKPGASVKVSCKASGYTFTSYDINWVRQATGQGLEWMGWMNPNSGNTGYAQKFQGRVTMTRNTSISTAYMELSSLRSEDTAVYYCARGVDLGDGWGQGTLVTVSS
notes: Single-chain antibody from a phage library; also called FnAb12抗体; 单克隆抗体FnAb12
Kd: 15 nM
